Each structure is given as a SMILES string.

For one data set, the system named is HT-1080.hFAP tumors. Put plainly: Quantitative in vivo MMAE release in tumor and healthy organs. Further details: species or system mouse (athymic Balb/c AnNRj-Foxn1). To be noted: 250 nmol/kg; vs ESV6-GlyPro-MMAE and Bi-ESV6-GlyPro-MMAE. From the text:
The ESV6 binding moiety in monomeric, dimeric or trimeric form was conjugated to an identical linker-payload structure based on a Glycine-Proline linker and an MMAE cytotoxic moiety. The three conjugates: (i) ESV6-GlyPro-MMAE—corresponding to Conjugate 58a of EP3891138B1—, (ii) Bi-ESV6-GlyPro-MMAE—corresponding to Conjugate 11 of WO2022/171811A1, and (iii) Tri-ESV6-GlyPro-MMAE—corresponding to Conjugate 9 of the present invention—, were compared in a tumor mouse model to study the efficacy of release of the MMAE cytotoxic moiety into the tumor.
HT-1080.hFAP tumors were implanted into the right flank of athymic Balb/c AnNRj-Foxn1 mice and allowed to grow to an average volume of approximately 200 mm^3. Mice were injected with the three conjugates at a dose of 250 nmol/kg and sacrificed at different timepoints after administration. Fresh blood was collected in lithium heparin tubes (BD Microcontainer LH Tubes), vortexed, and centrifuged (15,000 g, 15 minutes). […] Peak areas of analytes and internal standards were integrated, and corresponding ratios were calculated. The ratios were then transformed into pmol/g of wet tissue using single-concentration external calibration points and corrected by the total weight of the sample analysed. The percentage of injected dose per gram (% ID/g) was finally calculated by normalizing the value based on the total dose injected into the mouse. […]

Data set [1] in a line: Tolerability (body weight change) of MMAE conjugates in HT-1080.hFAP tumor bearing mice. It counts as in vivo, mouse (athymic Balb/c AnNRj-Foxn1). Conditions: 50 or 125 nmol/kg. The method, then: The anti-cancer efficacy of (i) ESV6-GlyPro-MMAE (50 or 125 nmol/kg) —corresponding to Conjugate 58a of EP3891138B1—, and (ii) Tri-ESV6-GlyPro-MMAE (50 or 125 nmol/kg) according to the present invention was assessed in athymic Balb/c AnNRj-Foxn1 mice bearing HT-1080.hFAP tumor in the right flank. Therapy experiments started when the average volume of established tumors had reached 80-100 mm3. Body weight of the animals and tumor volume were daily measured and recorded. Tumor dimensions were measured with an electronic caliper and tumor volume was calculated with the formula (long side, mm)×(short side, mm)×(short side, mm)×0.5. Animals were euthanized when one or more termination criterium indicated by the experimental license was reached. Prism 7 software (GraphPad Software) was used for data analysis.

For `CC[C@@H](C)[C@@H]([C@@H](CC(=O)N1CCC[C@H]1[C@H](OC)[C@@H](C)C(=O)N[C@H](C)[C@@H](O)c1ccccc1)OC)N(C)C(=O)[C@@H](NC(=O)[C@H](C(C)C)N(C)C(=O)OCc1ccc(NC(=O)[C@@H]2CCCN2C(=O)CNC(=O)CCCCCN2C(=O)CC(SC[C@H](NC(=O)[C@H](CC(=O)O)NC(=O)[C@H](CCCCN)NC(=O)[C@H](CC(=O)O)NC(=O)CCC(=O)NC(COCCC(=O)NCCNC(=O)CCC(=O)Nc3cccc4c(C(=O)NCC(=O)N5CC(F)(F)C[C@H]5C#N)ccnc34)(COCCC(=O)NCCNC(=O)CCC(=O)Nc3cccc4c(C(=O)NCC(=O)N5CC(F)(F)C[C@H]5C#N)ccnc34)COCCC(=O)NCCNC(=O)CCC(=O)Nc3cccc4c(C(=O)NCC(=O)N5CC(F)(F)C[C@H]5C#N)ccnc34)C(=O)O)C2=O)cc1)C(C)C` (stereo in doubt) [Tri-ESV6-GlyPro-MMAE], the “MMAE release in tumor and healthy organs, in words” value in the data set with HT-1080.hFAP tumors was “cleaner biodistribution profile, with high and prolonged accumulation at the tumor site, and lower release in the healthy organs”. In addition, the “tolerability (body weight change), in words” value in data set [1] is “well tolerated”.
